Test results published in article PMC2748320.

Biological target: C-terminal mycHis-tagged Rp1L1 (1-361), expressed in COS7 cells (mouse) (UniProt Q8CGM2)
Assay: co-IP

Chain of UniProt Q8CGM2 (Q8CGM2 1-361): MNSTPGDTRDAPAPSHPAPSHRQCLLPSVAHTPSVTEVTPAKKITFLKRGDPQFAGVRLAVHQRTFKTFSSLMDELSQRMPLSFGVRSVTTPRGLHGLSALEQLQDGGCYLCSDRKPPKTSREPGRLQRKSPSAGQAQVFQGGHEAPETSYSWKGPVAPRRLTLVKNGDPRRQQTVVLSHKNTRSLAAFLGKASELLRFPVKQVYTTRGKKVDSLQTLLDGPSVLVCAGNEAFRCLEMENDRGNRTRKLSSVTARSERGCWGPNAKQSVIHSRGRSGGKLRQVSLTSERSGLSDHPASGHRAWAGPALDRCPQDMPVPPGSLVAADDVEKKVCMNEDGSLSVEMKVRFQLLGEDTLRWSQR

“N-terminal FLAG-tagged full-length Rp1, P56716 1-2095” was tested, and the percent of FLAG-Rp1 co-immunoprecipitated was 12%.
